The series concerns Escherichia coli TOP10. As to the kind of experiment: shrunken log2 fold change of peptide-encoding DNA abundance (4.5 h post-induction vs induction); higher = less antimicrobial activity (less host growth inhibition). The conditions noted are these: time post-induction: 4.5 h; library: site-saturation at positions 5, 18, 19, 20.
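Also: peptides expressed intracellularly from a pBAD plasmid library in pooled LB shake-flask culture, induced with 0.3% L-arabinose, DNA abundance read by NGS, three biological replicates, DESeq2 with apeglm shrinkage.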

As for RRIRPRPPRLPRPRPRPFMMPRP, the “shrunken log2 fold change” value was -0.845.
As for RRIRTRPPRLPRPRPRPKDLPRP, the figure is 0.0246; as for RRIRYRPPRLPRPRPRPSPIPRP, -1.06.
In the case of RRIRRRPPRLPRPRPRPIAPPRP it was 0.702; in that of RRIRFRPPRLPRPRPRPMSHPRP, 0.00661.
As for RRIRARPPRLPRPRPRPTFPPRP, the figure is 0.308.
On to RRIRDRPPRLPRPRPRPIIDPRP, for which the “shrunken log2 fold change” value was -0.02.
As for RRIRDRPPRLPRPRPRPFNWPRP, the figure is 0.0464.
As for RRIRLRPPRLPRPRPRPGPNPRP, the figure is 0.0611; as for RRIRCRPPRLPRPRPRPCHWPRP, 0.0101; as for RRIRARPPRLPRPRPRPYRYPRP, -0.274.
In the case of RRIRIRPPRLPRPRPRPKKIPRP it was -0.526; in that of RRIRGRPPRLPRPRPRPYLVPRP, 0.15; in that of RRIRQRPPRLPRPRPRPGGVPRP, 0.463.
With RRIRCRPPRLPRPRPRPWRSPRP, the “shrunken log2 fold change” value is -0.0803.
For RRIRTRPPRLPRPRPRPPKVPRP, the “shrunken log2 fold change” value was determined as 0.286.
On to RRIRCRPPRLPRPRPRPTFAPRP, for which the “shrunken log2 fold change” value is 0.359.
For RRIRARPPRLPRPRPRPVYIPRP, the “shrunken log2 fold change” value is -0.355.
In the case of RRIRPRPPRLPRPRPRPLMCPRP it was -0.122; in that of RRIRKRPPRLPRPRPRPYQPPRP, -0.191; in that of RRIRVRPPRLPRPRPRPPNDPRP, -0.17.
For RRIRDRPPRLPRPRPRPWCIPRP, the “shrunken log2 fold change” value is -0.383.
As to RRIRERPPRLPRPRPRPNMKPRP, the “shrunken log2 fold change” value was -0.6.
Regarding RRIRGRPPRLPRPRPRPTDPPRP, the “shrunken log2 fold change” value came out at 0.687.
In the case of RRIRIRPPRLPRPRPRPQNNPRP it was -0.957; in that of RRIRRRPPRLPRPRPRPAHLPRP, 0.178.
As for RRIRYRPPRLPRPRPRPYRSPRP, the figure is 0.0135; as for RRIRCRPPRLPRPRPRPLFDPRP, -0.426; as for RRIRWRPPRLPRPRPRPGVFPRP, 0.224.
Take RRIRPRPPRLPRPRPRPHPKPRP: the “shrunken log2 fold change” value was 0.347.
On to RRIRRRPPRLPRPRPRPDAKPRP, for which the “shrunken log2 fold change” value was determined as 0.644.
In the case of RRIRSRPPRLPRPRPRPCESPRP it was -0.0178; in that of RRIRARPPRLPRPRPRPQDMPRP, -0.322; in that of RRIRCRPPRLPRPRPRPHPAPRP, 0.34.
For the sequence RRIRSRPPRLPRPRPRPMNAPRP, the “shrunken log2 fold change” value is 0.0215.
As for RRIRSRPPRLPRPRPRPYVQPRP, the figure is -0.024.
In the case of RRIRKRPPRLPRPRPRPRSMPRP it was -0.164.
For the sequence RRIRYRPPRLPRPRPRPPLVPRP, the “shrunken log2 fold change” value is 0.174.
Consider RRIRYRPPRLPRPRPRPDRWPRP, for which the “shrunken log2 fold change” value is -0.118.
As for RRIRQRPPRLPRPRPRPGYWPRP, the figure is -0.116; as for RRIRTRPPRLPRPRPRPAKQPRP, -0.0125.
As for RRIRWRPPRLPRPRPRPKQMPRP, the figure is 0.113; as for RRIRLRPPRLPRPRPRPAMQPRP, 0.0214.
For the sequence RRIRHRPPRLPRPRPRPGCHPRP, the “shrunken log2 fold change” value is -0.242.
As for RRIRNRPPRLPRPRPRPMGNPRP, the figure is -0.0658.
As for RRIRFRPPRLPRPRPRPQVDPRP, the figure is -0.412; as for RRIRQRPPRLPRPRPRPDMKPRP, 0.26.
Regarding RRIRSRPPRLPRPRPRPIFWPRP, the “shrunken log2 fold change” value stood at 0.403.
For the sequence RRIRTRPPRLPRPRPRPVDNPRP, the “shrunken log2 fold change” value is -0.0554.
In the case of RRIRERPPRLPRPRPRPDWPPRP, the “shrunken log2 fold change” value turned out to be 0.108.
As for RRIRWRPPRLPRPRPRPDARPRP, the figure is -0.018.
Regarding RRIRYRPPRLPRPRPRPPWCPRP, the “shrunken log2 fold change” value is -0.338.
In the case of RRIRLRPPRLPRPRPRPMHEPRP it was -0.0688.
Turning to RRIRMRPPRLPRPRPRPEIDPRP, the “shrunken log2 fold change” value turned out to be 3.19.
As for RRIRMRPPRLPRPRPRPTPNPRP, the figure is 0.87; as for RRIRIRPPRLPRPRPRPFTCPRP, 0.0493.
In the case of RRIRMRPPRLPRPRPRPITQPRP it was -0.00846; in that of RRIRLRPPRLPRPRPRPEYHPRP, 0.0779.
In the case of RRIRKRPPRLPRPRPRPNKQPRP it was -0.0316; in that of RRIRWRPPRLPRPRPRPWWWPRP, 0.12.
As for RRIRKRPPRLPRPRPRPHWYPRP, the “shrunken log2 fold change” value is 0.0533.
In the case of RRIRRRPPRLPRPRPRPYWIPRP it was -0.918; in that of RRIRHRPPRLPRPRPRPVYRPRP, -0.305; in that of RRIRIRPPRLPRPRPRPQGTPRP, -0.272.
Regarding RRIRQRPPRLPRPRPRPLMQPRP, the “shrunken log2 fold change” value was found to be 0.0776.
As for RRIRFRPPRLPRPRPRPRPHPRP, the figure is 0.355; as for RRIRRRPPRLPRPRPRPMNTPRP, -0.171; as for RRIRNRPPRLPRPRPRPTSPPRP, 0.113.
As for RRIRHRPPRLPRPRPRPSYYPRP, the figure is -1.56.
As to RRIRDRPPRLPRPRPRPQHCPRP, the “shrunken log2 fold change” value was 0.0461.
In the case of RRIRPRPPRLPRPRPRPKWAPRP it was 0.0222; in that of RRIRLRPPRLPRPRPRPSLRPRP, 0.00716.
As for RRIRNRPPRLPRPRPRPTQRPRP, the figure is 0.582; as for RRIRVRPPRLPRPRPRPIGVPRP, -0.01; as for RRIRMRPPRLPRPRPRPNEFPRP, 0.0287.
Consider RRIRCRPPRLPRPRPRPRSQPRP, for which the “shrunken log2 fold change” value amounted to 0.0629.
As to RRIRQRPPRLPRPRPRPVPNPRP, the “shrunken log2 fold change” value stood at 0.154.
As for RRIRERPPRLPRPRPRPKQGPRP, the figure is -0.0514; as for RRIRMRPPRLPRPRPRPDKGPRP, -0.0141; as for RRIRQRPPRLPRPRPRPWRFPRP, -0.113.
For the sequence RRIRERPPRLPRPRPRPLHHPRP, the “shrunken log2 fold change” value was -0.458.
In the case of RRIRSRPPRLPRPRPRPTEAPRP it was 0.0706.
In the case of RRIRTRPPRLPRPRPRPCWWPRP it was 0.636; in that of RRIRERPPRLPRPRPRPASPPRP, -0.165.
As for RRIRFRPPRLPRPRPRPMSMPRP, the “shrunken log2 fold change” value was 0.00945.
As for RRIRTRPPRLPRPRPRPQFDPRP, the figure is -0.652; as for RRIRSRPPRLPRPRPRPDVHPRP, -0.0954; as for RRIRTRPPRLPRPRPRPYCMPRP, -1.28.
As for RRIRLRPPRLPRPRPRPVWSPRP, the figure is 0.0624; as for RRIRPRPPRLPRPRPRPPNSPRP, -0.0717.
As for RRIRQRPPRLPRPRPRPRRTPRP, the figure is 0.655.
Turning to RRIRDRPPRLPRPRPRPRKYPRP, the “shrunken log2 fold change” value was -0.283.
Take RRIRDRPPRLPRPRPRPTIHPRP: the “shrunken log2 fold change” value is -0.128.
In the case of RRIRMRPPRLPRPRPRPVDQPRP, the “shrunken log2 fold change” value was determined as 0.0463.
In the case of RRIRIRPPRLPRPRPRPMGAPRP, the “shrunken log2 fold change” value was -0.341.
As for RRIRCRPPRLPRPRPRPYPAPRP, the figure is -0.53; as for RRIRLRPPRLPRPRPRPNYVPRP, -0.566.
As for RRIRQRPPRLPRPRPRPTCAPRP, the figure is 0.406; as for RRIRERPPRLPRPRPRPQRTPRP, -0.233.
In the case of RRIRVRPPRLPRPRPRPYVRPRP it was -0.492; in that of RRIRDRPPRLPRPRPRPQKTPRP, -0.253; in that of RRIRDRPPRLPRPRPRPKQAPRP, 0.0366.
With RRIRDRPPRLPRPRPRPRNQPRP, the “shrunken log2 fold change” value is -0.00575.
In the case of RRIRLRPPRLPRPRPRPYFHPRP, the “shrunken log2 fold change” value was -1.08.
As for RRIRSRPPRLPRPRPRPCHVPRP, the figure is -0.0349; as for RRIRLRPPRLPRPRPRPLIDPRP, -0.258.
As for RRIRWRPPRLPRPRPRPERTPRP, the figure is 1.08.
For the sequence RRIRKRPPRLPRPRPRPPCCPRP, the “shrunken log2 fold change” value is 0.39.
As for RRIRVRPPRLPRPRPRPHEAPRP, the figure is 0.145; as for RRIRPRPPRLPRPRPRPMKPPRP, 0.00333.
RRIRKRPPRLPRPRPRPCENPRP: the “shrunken log2 fold change” value stood at 0.0184.
With RRIRPRPPRLPRPRPRPDWVPRP, the “shrunken log2 fold change” value came out at 0.0636.
As for RRIRARPPRLPRPRPRPSMFPRP, the figure is 0.00699.
As for RRIRCRPPRLPRPRPRPVKLPRP, the figure is -0.176; as for RRIRRRPPRLPRPRPRPCFMPRP, -0.207; as for RRIRVRPPRLPRPRPRPNFWPRP, 0.137.
For the sequence RRIRYRPPRLPRPRPRPHIGPRP, the “shrunken log2 fold change” value was found to be 0.0489.
On to RRIRGRPPRLPRPRPRPCCWPRP, for which the “shrunken log2 fold change” value was 0.878.
Regarding RRIRTRPPRLPRPRPRPAKTPRP, the “shrunken log2 fold change” value turned out to be 0.117.
In the case of RRIRIRPPRLPRPRPRPCNFPRP it was -0.061; in that of RRIRERPPRLPRPRPRPMLWPRP, -0.0445; in that of RRIRWRPPRLPRPRPRPCCLPRP, 0.00932.
In the case of RRIRDRPPRLPRPRPRPICTPRP it was 0.198.
On to RRIRVRPPRLPRPRPRPWERPRP, for which the “shrunken log2 fold change” value was found to be 0.153.
In the case of RRIRCRPPRLPRPRPRPSQKPRP it was -0.169.
